This passage reports binding results from publication PMC5861037.

This data set has as its target DosR (Mycobacterium tuberculosis H37Rv) (UniProt P9WMF9). Kind of data set: EMSA. The conditions noted are these: 25 mM Tris-HCl pH 8.0, 20 mM KCl, 0.5 mM EDTA, 6 mM MgCl2, 1 mM DTT, 1 ug/mL poly I:C; room temperature, 10 min; 6.5% native Tris-glycine PAGE, silver staining.

Turning to “TTGATGCCTCCTAATCGATGGAAACGGATGCCTTTGATCCGACCAGCCCATCGTGGCCAGGGCTAGGGACAGAAGTCCCCGAAGCGCGGGCCATTTGTCCGCGCCCGTCGGTGATCCACTTGGGGACCATTGACCCTGTTGTCTGCCA (double strand) [acr promoter fragment]”, the binding entry was “binds”.
